According to PMC7367873, “Dissecting the sequence determinants for dephosphorylation by the catalytic subunits of phosphatases PP1 and PP2A” (Nature Communications, 2020):

Legend:
[1] = tested on: GFP-14-3-3β and its binding proteins; test: GFP-14-3-3β co-IP with LC-MS/MS label-free quantification, untreated versus PP1c-treated; design: species or system human; details: label-free quantification
Experimental: (§1) HeLa Kyoto cells expressing transiently transfected pEGFP(C1)-14-3-3β or pEGFP(C1) control plasmid, were incubated with 20 nM Calyculin A (# 9902 S, Cell Signaling Technology) for 12 min. Cells were washed twice on ice with cold PBS and after addition of 500 µL lysis buffer (100 mM NaCl, 10 mM Tris, 0.1% IGEPAL, 1 mM EDTA, 1 mM EGTA, 20 nM Calyculin A, 1x cOmplete Mini protease inhibitor cocktail (Sigma), 1 mM DTT, 1 mM MnCl2) cells were scraped from plates, lysed by 10 pushes through an injection needle (21 G, BD) and the insoluble fraction was pelleted by centrifugation (10 min, 10^4 rcf, 4 °C). Supernatants were then subjected to incubation with 1 µM recombinant phosphatase or buffer for 1 h at 30 °C. Next, we subjected samples to immunoprecipitation using α-GFP nanobodies covalently coupled to agarose beads (2 h, 4 °C, obtained from the EMBL PEPcore Core Facility). Beads were then washed three times with lysis buffer and samples were eluted in 1x LDS sample buffer (Thermo Fisher Scientific) by heating to 70 °C for 10 min.
(§2) The samples were then reduced with 25 mM dithiothreitol (10 min at 70 °C) and alkylated with 55 mM chloroacetamide (room temperature, 30 min, in the dark). Proteins were run on a precast 4–12% NuPAGE gel (ThermoFisher Scientific) for about 1 cm to concentrate the sample prior to in-gel tryptic digestion, which was performed according to the standard procedures. The peptides obtained were dried to completeness and resuspended in 12 µL of buffer A (0.1% FA), and 5 µL of sample were injected per MS measurement. The experiment was carried out in three independent replicates.
(§3) The samples were analyzed by LC-MS/MS on a Dionex Ultimate 3000 nano-HPLC coupled online to a Fusion Lumos Tribrid mass spectrometer (Thermo Fisher Scientific). Peptides were delivered to a trap column (75 µm × 2 cm, packed in-house with 5 µm C18 resin; Reprosil PUR AQ, Dr. Maisch) and washed using 0.1% FA at a flow rate of 5 µL/min for 10 min. Subsequently, peptides were transferred to an analytical column (75 µm × 45 cm, packed in-house with 3 µm C18 resin; Reprosil Gold) applying a flow rate of 300 nL/min and separated using a 60 min linear gradient from 4% to 32% LC solvent B (0.1% FA, 5% DMSO in ACN) in LC solvent A (0.1% FA in 5% DMSO). The eluate from the analytical column was sprayed via a stainless steel emitter (Thermo Fisher Scientific) at a source voltage of 2.1 kV into the mass spectrometer. The transfer capillary was heated to 275 °C. The Fusion Lumos was operated in positive ionization mode and data-dependent acquisition (DDA), automatically switching between MS1 and MS2 spectrum acquisition. Full scan MS1 spectra were recorded in the Orbitrap from 360 to 1300 m/z at a resolution of 60k (automatic gain control (AGC) target value of 4e5 charges, maximum injection time (maxIT) of 50 ms). Up to 20 peptide precursors were isolated (isolation window, 1.7 m/z; maximum injection time, 25 ms; and AGC value, 1e5), fragmented by high-energy collision-induced dissociation (HCD) using 30% normalized collision energy (NCE), and analyzed at a resolution of 15k in the Orbitrap. Precursor ions that were singly charged, unassigned, or with charge states >6+ were excluded. The dynamic exclusion duration of fragmented precursor ions was 20 s.
(§4) Peptide and protein identification and LFQ were performed using MaxQuant software (version 1.6.1.0)[64] by searching the data against all canonical protein sequences as annotated in the Swissprot reference database (human proteins only, 20193 entries, downloaded 22 March 2016, internally annotated with PFAM domains) using the embedded search engine Andromeda[65]. The MaxQuant search was performed using two variable modifications; oxidation of methionine and N-terminal protein acetylation. Carbamidomethylation on cysteines was specified as a fixed modification. Trypsin (Trypsin/P) was specified as the proteolytic enzyme with up to two allowed missed cleavage sites.

[2] = tested on: GFP-14-3-3β; test: GFP-14-3-3β co-IP with LC-MS/MS, untreated GFP-14-3-3β versus GFP control (14-3-3 interactome); format: binding, human; details: label-free quantification
Experimental: as §1, §2, §3, §4

Row | Molecule | Difference (log2), PP1 vs untreated ([1]; log2 difference, pairwise comparison PP1 vs untreated, 3 replicates each) | Difference (log2), PP1 vs untreated ([1]; PP1 vs untreated) [log2] | Difference (log2), untreated vs GFP ([2]; log2 difference, pairwise comparison untreated vs GFP, 3 replicates each) | Difference (log2), untreated vs GFP ([2]; untreated vs GFP) [log2]
1 | CEP131 (protein, UniProt Q9UPN4 1-1083, looked up) Centrosomal protein of 131 kDa: MKGTRAIGSVPERSPAGVDLSLTGLPPPVSRRPGSAATTKPIVRSVSVVTGSEQKRKVLEATGPGGSQAINNLRRSNSTTQVSQPRSGSPRPTEPTDFLMLFEGSPSGKKRPASLSTAPSEKGATWNVLDDQPRGFTLPSNARSSSALDSPAGPRRKECTVALAPNFTANNRSNKGAVGNCVTTMVHNRYTPSERAPPLKSSNQTAPSLNNIIKAATCEGSESSGFGKLPKNVSSATHSARNNTGGSTGLPRRKEVTEEEAERFIHQVNQATVTIQRWYRHQVQRRGAGAARLEHLLQAKREEQRQRSGEGTLLDLHQQKEAARRKAREEKARQARRAAIQELQQKRALRAQKASTAERGPPENPRETRVPGMRQPAQELSPTPGGTAHQALKANNTGGGLPAAGPGDRCLPTSDSSPEPQQPPEDRTQDVLAQDAAGDNLEMMAPSRGSAKSRGPLEELLHTLQLLEKEPDVLPRPRTHHRGRYAWASEVTTEDDASSLTADNLEKFGKLSAFPEPPEDGTLLSEAKLQSIMSFLDEMEKSGQDQLDSQQEGWVPEAGPGPLELGSEVSTSVMRLKLEVEEKKQAMLLLQRALAQQRDLTARRVKETEKALSRQLQRQREHYEATIQRHLAFIDQLIEDKKVLSEKCEAVVAELKQEDQRCTERVAQAQAQHELEIKKLKELMSATEKARREKWISEKTKKIKEVTVRGLEPEIQKLIARHKQEVRRLKSLHEAELLQSDERASQRCLRQAEELREQLEREKEALGQQERERARQRFQQHLEQEQWALQQQRQRLYSEVAEERERLGQQAARQRAELEELRQQLEESSSALTRALRAEFEKGREEQERRHQMELNTLKQQLELERQAWEAGRTRKEEAWLLNREQELREEIRKGRDKEIELVIHRLEADMALAKEESEKAAESRIKRLRDKYEAELSELEQSERKLQERCSELKGQLGEAEGENLRLQGLVRQKERALEDAQAVNEQLSSERSNLAQVIRQEFEDRLAASEEETRQAKAELATLQARQQLELEEVHRRVKTALARKEEAVSSLRTQHEAAVKRADHLEELLEQHRRPTPSTK |  | 1.183 |  | 0.2298
2 | ATP2A2 (protein, UniProt P16615 1-1042, looked up) Sarcoplasmic/endoplasmic …: MENAHTKTVEEVLGHFGVNESTGLSLEQVKKLKERWGSNELPAEEGKTLLELVIEQFEDLLVRILLLAACISFVLAWFEEGEETITAFVEPFVILLILVANAIVGVWQERNAENAIEALKEYEPEMGKVYRQDRKSVQRIKAKDIVPGDIVEIAVGDKVPADIRLTSIKSTTLRVDQSILTGESVSVIKHTDPVPDPRAVNQDKKNMLFSGTNIAAGKAMGVVVATGVNTEIGKIRDEMVATEQERTPLQQKLDEFGEQLSKVISLICIAVWIINIGHFNDPVHGGSWIRGAIYYFKIAVALAVAAIPEGLPAVITTCLALGTRRMAKKNAIVRSLPSVETLGCTSVICSDKTGTLTTNQMSVCRMFILDRVEGDTCSLNEFTITGSTYAPIGEVHKDDKPVNCHQYDGLVELATICALCNDSALDYNEAKGVYEKVGEATETALTCLVEKMNVFDTELKGLSKIERANACNSVIKQLMKKEFTLEFSRDRKSMSVYCTPNKPSRTSMSKMFVKGAPEGVIDRCTHIRVGSTKVPMTSGVKQKIMSVIREWGSGSDTLRCLALATHDNPLRREEMHLEDSANFIKYETNLTFVGCVGMLDPPRIEVASSVKLCRQAGIRVIMITGDNKGTAVAICRRIGIFGQDEDVTSKAFTGREFDELNPSAQRDACLNARCFARVEPSHKSKIVEFLQSFDEITAMTGDGVNDAPALKKAEIGIAMGSGTAVAKTASEMVLADDNFSTIVAAVEEGRAIYNNMKQFIRYLISSNVGEVVCIFLTAALGFPEALIPVQLLWVNLVTDGLPATALGFNPPDLDIMNKPPRNPKEPLISGWLFFRYLAIGCYVGAATVGAAAWWFIAADGGPRVSFYQLSHFLQCKEDNPDFEGVDCAIFESPYPMTMALSVLVTIEMCNALNSLSENQSLLRMPPWENIWLVGSICLSMSLHFLILYVEPLPLIFQITPLNVTQWLMVLKISLPVILMDETLKFVARNYLEPGKECVQPATKSCSFSACTDGISWPFVLLIMPLVIWVYSTDTNFSDMFWS |  | 1.1435 |  | -0.4794
3 | CD55 (protein, UniProt P08174 35-353, looked up) Complement decay-accelerating …: DCGLPPDVPNAQPALEGRTSFPEDTVITYKCEESFVKIPGEKDSVICLKGSQWSDIEEFCNRSCEVPTRLNSASLKQPYITQNYFPVGTVVEYECRPGYRREPSLSPKLTCLQNLKWSTAVEFCKKKSCPNPGEIRNGQIDVPGGILFGATISFSCNTGYKLFGSTSSFCLISGSSVQWSDPLPECREIYCPAPPQIDNGIIQGERDHYGYRQSVTYACNKGFTMIGEHSIYCTVNNDEGEWSGPPPECRGKSLTSKVPPTVQKPTTVNVPTTEVSPTSQKTTTKTTTPNAQATRSTPVSRTTKHFHETTPNKGSGTTS |  | 1.129 |  | -1.764

More lines, main results first:

Row | Difference (log2), PP1 vs untreated ([1]; log2 difference, pairwise comparison PP1 vs untreated, 3 replicates each) | Difference (log2), PP1 vs untreated ([1]; PP1 vs untreated) [log2] | Molecule | Difference (log2), untreated vs GFP ([2]; log2 difference, pairwise comparison untreated vs GFP, 3 replicates each) | Difference (log2), untreated vs GFP ([2]; untreated vs GFP) [log2]
4 | 2.782 |  | PKP3 (protein, UniProt Q9Y446 1-797, looked up) Plakophilin-3: MQDGNFLLSALQPEAGVCSLALPSDLQLDRRGAEGPEAERLRAARVQEQVRARLLQLGQQPRHNGAAEPEPEAETARGTSRGQYHTLQAGFSSRSQGLSGDKTSGFRPIAKPAYSPASWSSRSAVDLSCSRRLSSAHNGGSAFGAAGYGGAQPTPPMPTRPVSFHERGGVGSRADYDTLSLRSLRLGPGGLDDRYSLVSEQLEPAATSTYRAFAYERQASSSSSRAGGLDWPEATEVSPSRTIRAPAVRTLQRFQSSHRSRGVGGAVPGAVLEPVARAPSVRSLSLSLADSGHLPDVHGFNSYGSHRTLQRLSSGFDDIDLPSAVKYLMASDPNLQVLGAAYIQHKCYSDAAAKKQARSLQAVPRLVKLFNHANQEVQRHATGAMRNLIYDNADNKLALVEENGIFELLRTLREQDDELRKNVTGILWNLSSSDHLKDRLARDTLEQLTDLVLSPLSGAGGPPLIQQNASEAEIFYNATGFLRNLSSASQATRQKMRECHGLVDALVTSINHALDAGKCEDKSVENAVCVLRNLSYRLYDEMPPSALQRLEGRGRRDLAGAPPGEVVGCFTPQSRRLRELPLAADALTFAEVSKDPKGLEWLWSPQIVGLYNRLLQRCELNRHTTEAAAGALQNITAGDRRWAGVLSRLALEQERILNPLLDRVRTADHHQLRSLTGLIRNLSRNARNKDEMSTKVVSHLIEKLPGSVGEKSPPAEVLVNIIAVLNNLVVASPIAARDLLYFDGLRKLIFIKKKRDSPDSEKSSRAASSLLANLWQYNKLHRDFRAKGYRKEDFLGP | -1.082 | 
5 |  | 1.1838 | GNL3 (protein, UniProt Q9BVP2 1-549, looked up) Guanine nucleotide-binding …: MKRPKLKKASKRMTCHKRYKIQKKVREHHRKLRKEAKKRGHKKPRKDPGVPNSAPFKEALLREAELRKQRLEELKQQQKLDRQKELEKKRKLETNPDIKPSNVEPMEKEFGLCKTENKAKSGKQNSKKLYCQELKKVIEASDVVLEVLDARDPLGCRCPQVEEAIVQSGQKKLVLILNKSDLVPKENLESWLNYLKKELPTVVFRASTKPKDKGKITKRVKAKKNAAPFRSEVCFGKEGLWKLLGGFQETCSKAIRVGVIGFPNVGKSSIINSLKQEQMCNVGVSMGLTRSMQVVPLDKQITIIDSPSFIVSPLNSSSALALRSPASIEVVKPMEAASAILSQADARQVVLKYTVPGYRNSLEFFTVLAQRRGMHQKGGIPNVEGAAKLLWSEWTGASLAYYCHPPTSWTPPPYFNESIVVDMKSGFNLEELEKNNAQSIRAIKGPHLANSILFQSSGLTNGIIEEKDIHEELPKRKERKQEEREDDKDSDQETVDEEVDENSSGMFAAEETGEALSEETTAGEQSTRSFILDKIIEEDDAYDFSTDYV |  | 2.229
